Measured values reported in the Immune Epitope Database (IEDB).

Key:
[1] = molecular target: HLA-B*08:01; experiment: IEDB peptide-MHC binding, purified MHC/competitive/fluorescence; filed as Kd, often an IC50 or EC50 that approximates it; ≥ and ≤ were set here for values at or beyond the usual limits of such assays
[2] = molecular target: HLA-A*02:01; experiment: as above
[3] = molecular target: HLA-A*02:16; experiment: as above
[4] = molecular target: HLA-A*01:01; experiment: IEDB peptide-MHC binding, purified MHC/direct/fluorescence; filed as Kd, often an IC50 or EC50 that approximates it; ≥ and ≤ were set here for values at or beyond the usual limits of such assays
[5] = molecular target: HLA-A*02:01; experiment: as above
[6] = molecular target: HLA-A*03:01; experiment: as above
[7] = molecular target: HLA-A*11:01; experiment: as above
[8] = molecular target: HLA-A*24:03; experiment: as above
[9] = molecular target: HLA-A*26:01; experiment: as above
[10] = molecular target: HLA-A*30:01; experiment: as above
[11] = molecular target: HLA-A*31:01; experiment: as above
[12] = molecular target: HLA-A*69:01; experiment: as above
[13] = molecular target: HLA-B*07:02; experiment: as above
[14] = molecular target: HLA-B*08:01; experiment: as above
[15] = molecular target: HLA-B*15:01; experiment: as above
[16] = molecular target: HLA-B*27:05; experiment: as above
[17] = molecular target: HLA-B*35:01; experiment: as above
[18] = molecular target: HLA-B*40:01; experiment: as above
[19] = molecular target: HLA-B*44:02; experiment: as above
[20] = molecular target: HLA-B*58:01; experiment: as above
[21] = molecular target: HLA-A*02:03; experiment: IEDB peptide-MHC binding, purified MHC/competitive/fluorescence; filed as Kd, often an IC50 or EC50 that approximates it; ≥ and ≤ were set here for values at or beyond the usual limits of such assays; details: source organism: Salmonella enterica subsp. enterica serovar Typhi
[22] = molecular target: HLA-A*02:11; experiment: as above; details: source organism: Salmonella enterica subsp. enterica serovar Typhi
[23] = molecular target: HLA-A*02:12; experiment: as above; details: source organism: Salmonella enterica subsp. enterica serovar Typhi
[24] = molecular target: HLA-A*02:19; experiment: as above; details: source organism: Salmonella enterica subsp. enterica serovar Typhi
[25] = molecular target: HLA-A*03:01; experiment: as above; details: source organism: Salmonella enterica subsp. enterica serovar Typhi
[26] = molecular target: HLA-A*26:01; experiment: as above; details: source organism: Salmonella enterica subsp. enterica serovar Typhi
[27] = molecular target: HLA-A*68:02; experiment: as above; details: source organism: Salmonella enterica subsp. enterica serovar Typhi
[28] = molecular target: HLA-A*69:01; experiment: as above; details: source organism: Salmonella enterica subsp. enterica serovar Typhi
[29] = molecular target: HLA-B*15:01; experiment: as above
[30] = molecular target: HLA-B*18:01; experiment: as above; details: source organism: Salmonella enterica subsp. enterica serovar Typhi
[31] = molecular target: HLA-B*27:03; experiment: as above; details: source organism: Salmonella enterica subsp. enterica serovar Typhi
[32] = molecular target: HLA-B*39:01; experiment: as above; details: source organism: Salmonella enterica subsp. enterica serovar Typhi
[33] = molecular target: HLA-B*46:01; experiment: as above; details: source organism: Salmonella enterica subsp. enterica serovar Typhi
[34] = molecular target: HLA-B*51:01; experiment: as above; details: source organism: Salmonella enterica subsp. enterica serovar Typhi
[35] = molecular target: HLA-B*57:01; experiment: as above; details: source organism: Salmonella enterica subsp. enterica serovar Typhi
[36] = molecular target: HLA-A*02:50; experiment: as above
[37] = molecular target: HLA-A*02:12; experiment: IEDB peptide-MHC binding, purified MHC/direct/fluorescence; filed as Kd, often an IC50 or EC50 that approximates it; ≥ and ≤ were set here for values at or beyond the usual limits of such assays; details: source organism: Vibrio vulnificus CMCP6
[38] = molecular target: HLA-A*02:16; experiment: as above; details: source organism: Vibrio vulnificus CMCP6
[39] = molecular target: HLA-C*05:01; experiment: as above
[40] = molecular target: HLA-C*03:03; experiment: as above; details: source organism: Escherichia coli O139:H28 str. E24377A
[41] = molecular target: HLA-B*35:01; experiment: IEDB peptide-MHC binding, purified MHC/competitive/fluorescence; filed as Kd, often an IC50 or EC50 that approximates it; ≥ and ≤ were set here for values at or beyond the usual limits of such assays; details: source organism: Escherichia coli O139:H28 str. E24377A
[42] = molecular target: HLA-B*58:01; experiment: as above; details: source organism: Escherichia coli O139:H28 str. E24377A
[43] = source organism: Escherichia coli O139:H28 str. E24377A
[44] = source organism: Francisella tularensis subsp. holarctica OSU18
[45] = source organism: Vibrio cholerae
[46] = source organism: Salmonella enterica subsp. enterica serovar Typhi
[47] = source organism: Serratia marcescens
[48] = source organism: Vibrio vulnificus
[49] = source organism: Vibrio vulnificus YJ016
[50] = source organism: Coxiella burnetii

DLLKPNYAL
Kd [1, 43]: 4.02 µM

FGLLPEHYV
Kd [2, 44]: 0.12 µM
Kd [3, 44]: 0.0601 µM

FPRSAERAG
Kd [4, 45]: ≥ 20 µM
Kd [5, 45]: ≥ 20 µM
Kd [6, 45]: ≥ 20 µM
Kd [7, 45]: ≥ 20 µM
Kd [8, 45]: ≥ 20 µM
Kd [9, 45]: ≥ 20 µM
Kd [10, 45]: ≥ 10 µM
Kd [11, 45]: ≥ 20 µM
Kd [12, 45]: ≥ 20 µM
Kd [13, 45]: 0.201 µM
Kd [14, 45]: ≥ 20 µM
Kd [15, 45]: ≥ 20 µM
Kd [16, 45]: ≥ 20 µM
Kd [17, 45]: 0.0434 µM
Kd [18, 45]: ≥ 20 µM
Kd [19, 45]: ≥ 20 µM
Kd [20, 45]: ≥ 20 µM

KTVRYWHRF
Kd [2, 46]: ≥ 20 µM
Kd [21]: ≥ 20 µM
Kd [22]: ≥ 20 µM
Kd [23]: ≥ 20 µM
Kd [3, 46]: ≥ 20 µM
Kd [24]: ≥ 20 µM
Kd [25]: ≥ 20 µM
Kd [26]: ≥ 20 µM
Kd [27]: ≥ 20 µM
Kd [28]: ≥ 20 µM
Kd [29, 46]: ≥ 20 µM
Kd [30]: ≥ 20 µM
Kd [31]: ≥ 20 µM
Kd [32]: ≥ 20 µM
Kd [33]: ≥ 20 µM
Kd [34]: ≥ 20 µM
Kd [35]: 0.0403 µM

LIPDGDGEV
Kd [4, 47]: ≥ 20 µM
Kd [5, 47]: ≥ 20 µM
Kd [6, 47]: ≥ 20 µM
Kd [9, 47]: ≥ 20 µM
Kd [11, 47]: ≥ 20 µM
Kd [12, 47]: ≥ 20 µM
Kd [13, 47]: ≥ 20 µM
Kd [14, 47]: ≥ 20 µM
Kd [15, 47]: ≥ 20 µM
Kd [16, 47]: ≥ 20 µM
Kd [18, 47]: ≥ 20 µM
Kd [20, 47]: ≥ 20 µM
Kd [36, 47]: 0.0017 µM

MSDWGHITV
Kd [5, 48]: 0.276 µM
Kd [37]: 0.056 µM
Kd [38]: 0.029 µM
Kd [12, 48]: ≤ 0.001 µM
Kd [39, 49]: ≤ 0.001 µM
Kd [36, 49]: 0.0098 µM

QLKYKYPAL
Kd ([1]; source organism: Influenza A virus (A/Tokyo/1566/98(H3N2))): 0.0679 µM

SYGNANVSF
Kd [4, 50]: 1.81 µM
Kd [5, 50]: ≥ 20 µM
Kd [6, 50]: ≥ 20 µM
Kd [7, 50]: ≥ 5 µM
Kd [9, 50]: ≥ 20 µM
Kd [11, 50]: ≥ 20 µM
Kd [12, 50]: ≥ 20 µM
Kd [13, 50]: ≥ 20 µM
Kd [14, 50]: ≥ 20 µM
Kd [15, 50]: 1.14 µM
Kd [16, 50]: ≥ 20 µM
Kd [17, 50]: 0.264 µM
Kd [18, 50]: ≥ 20 µM
Kd [19, 50]: ≥ 20 µM
Kd [20, 50]: ≥ 20 µM

VNGVKGIQF
Kd [4, 48]: ≥ 20 µM
Kd [5, 48]: ≥ 20 µM
Kd [6, 48]: ≥ 20 µM
Kd [7, 48]: ≥ 20 µM
Kd [8, 48]: ≥ 20 µM
Kd [9, 48]: ≥ 20 µM
Kd [10, 48]: ≥ 20 µM
Kd [11, 48]: ≥ 20 µM
Kd [12, 48]: ≥ 20 µM
Kd [14, 48]: ≥ 20 µM
Kd [15, 48]: ≥ 20 µM
Kd [16, 48]: ≥ 20 µM
Kd [17, 48]: 1 µM
Kd [18, 48]: ≥ 20 µM
Kd [19, 48]: ≥ 20 µM
Kd [20, 48]: ≥ 20 µM

YALATQVEF
Kd [40]: ≤ 0.001 µM
Kd [39, 43]: 2.65 µM
Kd [1, 43]: 3.72 µM
Kd [29, 43]: 0.0413 µM
Kd [41]: ≤ 0.0001 µM
Kd [42]: 0.0045 µM
